# Measured values taken from publication PMC6009700.
# Read-outs that look alike come from different tables or passages of the source.
# T1: TubR (Clostridium botulinum prophage c-st, UniProt Q331T6 1-81)
# T1 sequence: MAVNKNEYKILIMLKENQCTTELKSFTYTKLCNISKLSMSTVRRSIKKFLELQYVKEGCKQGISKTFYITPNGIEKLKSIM
# B1: SF2 (dsDNA)
# DNA 1: AGAATATACTTTGAATATAATTAGACTTAAACAAGATTACTTTTAGACTATAGTATAAATATAATTAGAAAATAATTTGAATAATTTATGAAAATAAGTACACATTTTCTAAGGAATATAGTATAATATAGTAAAGAAAGA
# DNA 2: TCTTTCTTTACTATATTATACTATATTCCTTAGAAAATGTGTACTTATTTTCATAAATTATTCAAATTATTTTCTAATTATATTTATACTATAGTCTAAAAGTAATCTTGTTTAAGTCTAATTATATTCAAAGTATATTCT
# B2: SF3b (dsDNA)
# DNA 1: TGAACATATAGTGAACATAATACAACTAGTACAAGAATGTAGTTTGACTAT
# DNA 2: ATAGTCAAACTACATTCTTGTACTAGTTGTATTATGTTCACTATATGTTCA
# B3: SF3 (dsDNA)
# DNA 1: GTTAATTGTAGCGTTAAGTGAGACATAGAATTGAACATATAGTGAACATAATACAACTAGTACAAGAATGTAGTTTGACTATAATTTGAACATATTTAGAATATACTTTGAATATAATTAGACTTAAACAAG
# DNA 2: CTTGTTTAAGTCTAATTATATTCAAAGTATATTCTAAATATGTTCAAATTATAGTCAAACTACATTCTTGTACTAGTTGTATTATGTTCACTATATGTTCAATTCTATGTCTCACTTAACGCTACAATTAAC
# B4: SF1b (dsDNA)
# DNA 1: AAATAAACATGATATGAACATATATTGACTACAGTTTGACATAGTTTTGAC
# DNA 2: GTCAAAACTATGTCAAACTGTAGTCAATATATGTTCATATCATGTTTATTT
# B5: Shuffle DNA (dsDNA)
# DNA 1: AATCGTAAAATATTACAATATAAGGTAACAAGATATTCCTTTTTGGAGCAT
# DNA 2: ATGCTCCAAAAAGGAATATCTTGTTACCTTATATTGTAATATTTTACGATT
# B6: CP1 (dsDNA)
# DNA 1: TATAGTAAAGAAAGAAATAAACATGATATGAACATATATTGACTACAGTTTGACATAGTTTTGACTATGATATGAACAAAATAAGAATGTATTA
# DNA 2: TAATACATTCTTATTTTGTTCATATCATAGTCAAAACTATGTCAAACTGTAGTCAATATATGTTCATATCATGTTTATTTCTTTCTTTACTATA
# B7: SF1 (dsDNA)
# DNA 1: TAAGGAATATAGTATAATATAGTAAAGAAAGAAATAAACATGATATGAACATATATTGACTACAGTTTGACATAGTTTTGACTATGATATGAACAAAATAAGAATGTATTATGAATATTTTCTTACATTACTGCGACTACTATCAG
# DNA 2: CTGATAGTAGTCGCAGTAATGTAAGAAAATATTCATAATACATTCTTATTTTGTTCATATCATAGTCAAAACTATGTCAAACTGTAGTCAATATATGTTCATATCATGTTTATTTCTTTCTTTACTATATTATACTATATTCCTTA
# How the values were obtained:
# TubR [1] = target: T1, TubR; test: EMSA
# TubR [2] = target: T1, TubR; test: fluorescence anisotropy
# TubR [3] = target: T1, TubR; test: fluorescence anisotropy; remark: listed apart in the source
# TubR [4] = target: T1, TubR; test: EMSA; remark: listed apart in the source
Binder,binding result (TubR [1]),also measured
B1,binds,–
B2,–,apparent K (half saturation) (TubR [2]): 138 ± 7.7 nM
B3,binds,–
B4,–,apparent K (half saturation) (TubR [3]): 184 ± 4.04 nM
B5,no binding,–
B6,–,binding result (TubR [4]): binds
B7,binds,–
